Experimental data taken from patent publication US20080311122A1, “Antagonists of Hmgb1 and/or Rage and Methods of Use Thereof” (Medimmune, LLC, priority 2005, published 2008).
Entries after “also recorded” stand apart in the source; their conditions may differ.

B1: E11: human anti-HMG1 antibody, recognizes HMG1 A-Box; VL/VH aa SEQ ID NO: 24/26 (antibody, listed as Homo sapiens, V domains shown)
VH: EVQLLESGGGLVQPGGSLRLSCAASGFTFSRYQMNWVRQAPGKGLEWVSSISPSGGHTHYADSVKGRFTISRDNSKNTLYLQMNSLRAEDTAVYYCAKDGRQGKISTVDHWGQGTLVTVSS
VL: AQDIQMTQSPGTLSLSPGERATLSCRASQSVRSNFLAWYQQKPGQAPRLLIYGASRRASGIPDRFSGSGFGADFTLSISRLEPEDFAVYYCQQYGSSPNTFGQGSRVEIK
B2: G20: human anti-HMG1 antibody; VL/VH aa SEQ ID NO: 46/48 (antibody, listed as Homo sapiens, V domains shown)
VH: EVQLLESGGGLVQPGGSLRLSCAASGFTFSWYDMFWVRQAPGKGLEWVSWISPSGGYTKYADSVKGRFTISRDNSKNTLYLQMNSLRAEDTAMYYCARSGLDYYDSSGYLDAFDIWGQGTMVTVSS
VL: AQDIQMTQSPSSVSASVGDRVTITCRASQDVSIWLAWYQQKPGKAPKLLIFGASRLQSGVPSRFSGSRSGADFTLTIDSVQPEDFASYYCQQADSFPLTFGGGTKVEIK
B3: S16: human anti-HMG1 antibody, ATCC PTA-6259; VL/VH aa SEQ ID NO: 13/15 (antibody, listed as Homo sapiens, V domains shown)
VH: EVQLLESGGGLVQPGGSLRLSCAASGFTFSWYSMLWVRQAPGKGLEWVSYISPSGGFTNYADSVKGRFTISRDNSKNTLYLQMNSLRAEDTAVYYCARWDYNSGWYYDHWGQGTLVTVSS
VL: AQDIQMTQSPDTLSLSPGERATLSCRASQSVNSRNLAWYQQKPGQAPRLLIYGASTRATGIPDRFSGSVSGTEFTLTISSLQPDDFATYYCQQYNSYFTFGQGTKLEIK
B4: G2: human anti-HMG1 IgG1 from Fab phage display library; VL/VH aa SEQ ID NO: 30/32 (antibody, listed as Homo sapiens, V domains shown)
VH: EVQLLESGGGLVQPGGSLRLSCAASGFTFSWYKMQWVRQAPGKGLEWVSGISPSGGSTAYADSVKGRFTISRDNSKNTLYLQMNSLRAEDTAVYYCAKMGLFNTGNSYVDYWGQGTLVTVSS
VL: AQSELTQPPSVSEAPGQRVTISCSGSTSNIGNNAVIWYQQLPGKAPKLLIYYDDLLPSGVSDRFSGSKSGTSGSLAISGLQSEDEADYYCASWDDNLNGPLFGGGTKLTVL

What was measured:
[1] = system: HMG1 stimulated cytokine gene expression in mouse macrophages; test: Taqman analysis of mouse macrophages (mMØ) stimulated with HMG1; type: cell-based; settings: rHMG1
Procedure: Taqman Analysis of Mouse Macrophages (mMØ) Stimulated with HMG1: Mouse bone marrow was harvested by rinsing the femurs of normal C57BL/6 mice. The isolated bone marrow cells were then cultured in Dulbecco's modified Eagle's medium (DMEM) supplemented with 10% fetal bovine serum (FBS) and 50 ng/ml M-CSF for 24 h, nonadherent cells were collected and grown for 6 days in complete DMEM supplemented with 10% FBS and 50 ng/ml M-CSF in T-75 flasks (1×10^7 cells/15 ml/flask). On day 6, adherent cells were harvested and reseeded with 5 ng/ml MCSF in α-MEM containing 10% FBS in 96-well plates (1×10^5 cells/200 μl/well) overnight.
The culture medium was replaced with α-MEM and incubated for 2 hours before stimulation to starve cells. HMGB1 (recombinant CBP-HMGB1 fusion protein generated from E. coli at 10 μg/ml), mouse-RAGE-Fc or human-RAGE-Fc fusion protein were pre-mixed with various blocking reagents at 100 μg/ml in α-MEM for 20 min at RT, then 100 μl of the mixtures was added to the cells and incubated at 37° C. for 2 hours. The supernatant was then removed, and the RNA was extracted using Ambion's MagMAX™-96 Total RNA Isolation Kit. All of the recovered RNA were used in a reverse transcriptase (RT) reaction with SuperScript™ III and oligo(dT) primer (Invitrogen) for synthesis of cDNA. 1 μl or 2 μl of the resulting cDNA was used for real time quantitative PCR analysis (TaqMan) using ABI Prism 7700 or 7000.

[2] = system: HMG1 induced TLR4 activation; test: TLR4 activation assay (NF-κB luciferase reporter, 293 cells); type: cell-based, human
Procedure: TLR4 Activation Assay: HuTLR4 and CD14 stably expressed 293 cells (Invitrogen) were seeded in a 96 well plate at 2×10^4/well in 100 μl of DMEM with 10% FCS overnight. Cells were then transfected with NF-κB/Luc (Stratagene) luciferase reporter construct as indicated by the kit for 24 hr. A mixture of HMGB1 and anti-HMGB1 was added to cells at 100 μl/well overnight. The luciferase activity was then measured to reflect TLR4 activation (Promega).

[3] = system: Tx-HMGB1+LPS stimulated IL-6 release (TLR4 signaling); test: Inhibition of HMG1 mediated enhancement of TLR signaling, Tx-HMGB1+LPS in human PBMCs; type: cell-based
Procedure: Cytokine Release Assays: Human PBMCs were treated with rHMG1 in the presence or absence of Polymyxin B (FIG. 20). Human PBMCs were treated with rHMG1 and Tx-HMGB1 at concentrations up to 4 μg/ml (FIG. 21). ˜16 μg/mL (512 nM) Tx-HMGB1 was incubated with 61.5 EU/mL (6.15 ng/mL; approx. 0.615 nM) LPS overnight at 4° C. The sample was diluted as indicated and added to human PBMCs (FIG. 22). In all assays the cells were incubated overnight at 37° C., 5% CO2 and the supernatants were assayed for cytokine levels by Bioplex assay. When present Polymyxin B was used at 8 U/mL.
(§1) Inhibition of HMG1 Mediated Enhancement of TLR Signaling: Human PBMCs were treated with Tx-HMGB1+LPS (as described above) in combination with either the Anti-HMG1 antibody E11, S16 or G4, anti-TLR4 antibody, or isotype control antibodies (R3, IgG2a) and incubated overnight at 37° C., 5% CO2 in the presence of 8 U/mL Polymyxin B. The supernatants were assayed for cytokine levels (FIG. 22, right panel).

[4] = system: HMG1 enhancement of PAMP stimulation; test: Inhibition of the enhancement of PAMP stimulation by HMG1 (Table 1 summary); type: cell-based; settings: PAMP used and cytokine assayed are indicated
Procedure: as §1
Inhibition of HMG1 Mediated Enhancement of TLR Signaling: Freshly isolated bone marrow cells were stimulated with TLR9 ligand CpG2216 (0.3 μM) and thymus HMGB1 (10 μg/mL) in the presence of different concentration of the anti-HMGB1 mAb E11 or control human IgG for 24 hr and IFN-a in the supernatant was measured by ELISA. CpG2216, HMGB1 and nonstimulatory DNA were used alone or in combination as controls for the assay.

[5] = system: LPS-induced ALI; test: LPS induced acute lung injury (ALI) mouse model; type: in vivo; settings: percent protection, isotype control subtracted
Procedure: Induction of LPS-induced ALI: LPS (E. coli strain 01111:B4. Sigma, St. Louis, Mo.) was administered intranasally to isoflurane (Baxter Pharmaceuticals, Deerfield, Ill.) anesthetized adult BALB/c mice on day 1 at a dose of 5-10 ug per mouse in 50-100 μl. For determination of HMG1 levels animals were euthanized by CO2 asphyxiation at 4, 8, 24, 32 and 48 hours post LPS administration, and BronchoAlvcolar Lavarge (BAL) and other samples collected for protein analysis and histopathology. For treatment protocols 24 hours post LPS dosing, anti-HMGB1 antibodies, HMG1 A-box Fc fusion or controls were administered intraperitoneally (i.p.) at a dose of 10 mg/kg in 100 ul volumes. On day 3 (48 h post LPS dosing), animals were euthanized by CO2 asphyxiation and samples (BALs, blood, and lungs) collected for analysis.
BAL Sample Collection: lungs were flushed three times with ˜0.8 ml Phosphate buffered saline (PBS, pH 7.2, GIBCO, Rockville, Md.) using a syringe with a catheter tubing. BAL samples collected were centrifuged at 1,200 rpm for 10 min at 4 C, supernatant collected and stored at −80 C for protein (e.g. HMGB1) quantitation, and cells in pellet were resuspended and transferred to cytoslides, fixed, GIEMSA stained, and BAL cellularity determined visually with the aid of a microscope.

[6] = system: THP-1 cells; test: HMG1 binding to THP-1 cells; design: species or system human
Procedure: HMG1 binding to THP-1 Cells: Recombinant rat HMGB-1 was labeled using Eu-labelling Kit from PerkinElmer. Molar ratio of HMGB-1 to Eu is 1:5. THP-1 were cultured as the protocol from ATCC. Cells were harvested and suspended at concentration 1×10^6/ml in assay buffer containing 1×DELFIA L*R binding buffer (PerkinElmer), 50% of DELFIA stabilizer (PerkinElmer) and 0.05% of sodium azide. 100 μl of cells (1×10^5) was added into wells in 96 well cell culture plate. The plate was incubated with gentle shaking at 4° C. for one hour. 100 μl of assay buffer containing 2 nM of Europium-labeled HMGB-1 mixed with various concentrations (333, 166.5, 83.25, 41.6, 20.8, 10.4 and 5.2 nM) of human anti-HMGB1 antibodies E11 or G2 or soluble human RAGE-Fc, were added into each wells respectively. After one hour incubation with gentle shaking at 4° C., the cells were washed four times with 1×L*R wash buffer (PerkinElmer) by centrifuging at 1200 rpm×5 min. 200 μl of enhancement solution was added into each well to dissociate and enhance Eu fluorescence at 615 nm. The fluorescence was measured with Wallac Victor Fluorometer. Assay was performed in triplicate and human antibody R3-47 was used the negative isotype control.

Row | Molecule | inhibition of HMG1-induced IL-1β gene expression [1] | block of HMG1 induced TLR4 activation [2] | inhibition of Tx-HMGB1+LPS induced IL-6 release [3] | Inhibition of Synergy (PAMP/Cytokine) [4] | in vivo ALI [5] | block of HMG1 binding to THP-1 cells [6] | inhibition of HMG1-induced TNF-a gene expression [1]
1 | B1 | significantly reduce HMG1-induced IL-1b gene expression; also recorded: robustly inhibited | able to inhibit HMG1 activation of TLR4; also recorded: significant ability to block HMG1 induced TLR4 activation | reduction in IL-6 release to near background levels; also recorded: block the Tx-HMG1 mediated enhancement of TLR4 signaling; also recorded: can be inhibited | CpG/IFN-a, LPS/IL-6 | 37% | block the binding of HMG1 to THP-1 cells | 
2 | B2 |  | able to inhibit HMG1 activation of TLR4 |  |  |  |  | 
3 | B3 |  |  | reduction in IL-6 release to near background levels; also recorded: block the Tx-HMG1 mediated enhancement of TLR4 signaling; also recorded: can be inhibited | LPS/IL-6 |  |  | 
4 | B4 | significantly reduce HMG1-induced IL-1b gene expression; also recorded: robustly inhibited |  |  |  |  | block the binding of HMG1 to THP-1 cells | significantly reduce HMG1-induced TNF-α gene expression; also recorded: robustly inhibited
